# Measured values taken from patent US20180334496A1 (KODIAK SCIENCES, published 2018).
# Residue numbers refer to the chain shown, from its start. Like-named read-outs stand apart in the source and are kept apart here.
# B1: KCD002 (antibody, V domains shown)
# VH: EVKLVESEGGLVQPGSSMKLSCTASGFTFSDYYMAWVRQVPEKGLEWVGNINYDGSSTYYLDSLKSRFIISRDSAKNILYLQMSSLKSEDTATYFCARGEDFYLYAMDYWGQGTSVTVSS
# VL: DIQMTQSPASLSASVGETVTITCRASENIHSYLAWYQQKQGKSPQLIVYNTKTLAEGVPSRFSGSGSGTQFSLKINSLQPEDFGSYYCQHHYGIPPTFGGGTKLEIK
# notes: chimeric
# B2: KCD124 (antibody, V domains shown)
# VH: EVQLQQSGPELVKPGASVKISCKASGYTFTDHYMNWVKQSHGKSLEWIGDINPNNGGTSYNQKFKGKATLTVDKSSSTAYMELRSLTSGDSAVYYCTREGASFAFWGQGTLVTVSA
# VL: DVLMTQTPLSLPVSLGDQASISCRSSQSIVHSNGDTYLEWYLQKPGQSPKLLIYKVSNRFSGVPDRFSGSGSGTDFTLKISRVEAEDLGVYYCFQGSHVPLTFGAGTKLELK
# notes: chimeric
# B3: Mouse KCD119 (antibody, V domains shown)
# VH: EVQLQQSGPELVKPGASVKISCKASGYTFTDYYTNWMRQRHGESLEWIGDINPNTGDTSYNQKFRVKATLTVDKSSGTAYMGLRSLTSEDSAVYYCTREGPSFAYWGQGTLVTVSA
# VL: B2 VL with S28T, K50N, L101P, A105G, K108T, L111I
# B4: KCD208 (antibody, V domains shown)
# VH: EVQLQQSVAELVRPGASVKLSCTVSGFNIKNTYMHWVKQRPEQGLEWIGRIDPANGDTTYAPKFQGKATITADTSSNSAYLHLSRLTSEDTAIYYCSLYDYDGYWGQGTTLTVSS
# VL: EIVLTQSPALMAASPGEKVTITCSVSSSISSSSLHWYRQKSGTSPKPWIYGTSHLASGVPVRFSGSGSGTSYSLTISSMEAEDAATYYCQQWDTYPWTFGGGTKLEIK
# notes: chimeric
# B5: KCD214 (antibody, V domains shown)
# VH: B4 VH with L11F, V24A, D57N, T59E, S78T, H82Q, R85S, S97A
# VL: B4 VL with S24R, R38Q, H54N, G67R, D93S, T94D
# notes: chimeric
# B6: KCD042 (antibody, V domains shown)
# VH: EVQLQQSGAELVKPGASVRLSCTASGFNIKHTYIHWVSQRPEQGLEWIGKIDPANGNTKYDPKFQGKATITADTSSNTAYLQLSSLTSEDTAVYYCVNAMEYWGQGTSVTVSS
# VL: QSVLTQSPAIMSASPGEKVTMTCSANSSVSDMYWFQQRPGSSPRLLIYDTSNLASGVPVRFSGSGSGTSYSLTISRMEAEDAATYYCQQWSTYPWTFGGGTKLEIK
# notes: chimeric
# B7: KCD136 (antibody, V domains shown)
# VH: EVQLQQSVAELVRPGASVKLSCSASGFNIKNTYMHWVNQRPEQGLEWIGRIDPANGITKYAPNFQGKATITADTSSNTAYLQLSNLTSEDTAIYYCTRAMDYWGQGTSVTVSS
# VL: B6 VL with S2I, N26S, D31Y, F35Y, R38K, T50I, S91D
# notes: chimeric
# B8: KCD040 (antibody, V domains shown)
# VH: EVQLQQSGAELVKPGASVKLSCTASDFNIKDTYMHWVMQRPEQGLEWIGKIDPANGNTEFDPKFQGKATITADTSSNTAYLQLTSLTSEDTAVYYCTRAMDYWGQGTSVTVSS
# VL: B6 VL with S2I, N26G, D31Y, F35Y, R38K, L45V, T92N, W95Y
# notes: chimeric
# B9: KCD047 (antibody, V domains shown)
# VH: B6 VH with L11F, H31D, I34M, S38K, K50R, N57Y, Y60D, V97A, N98S, E101D
# VL: QIVLTQSPAVMSASPGEKVAMTCSASSSVTYMYWYQQKPGSSPRLLIYDTSNLASGVPVRFSGSGSGTSYSLTISRMEAEDAATYYCQQWSTYPFPFGSGTKLEIK
# notes: chimeric
# B10: KCD044 (antibody, V domains shown)
# VH: B6 VH with I34M, Q43R, A79V, V97L
# VL: B6 VL with F35Y
# notes: chimeric
# B11: KCD224 (antibody, V domains shown)
# VH: QVQLKESGPGLVAPSQSLSITCTVSGFSLTSYGVDWIRQSPGKGLEWLGVIWGVGSTNYNSALKSRLSISKDNSKSQVFLKMNSLQTDDTAMYYCARSYDGSYWYFDVWGTGTTVTVSS
# VL: DIQMTQTTSSLSASLGDRVTISCRASQVISNYLNWYQQKPDGTVKLLIYYTSRLHSGVPSRFSGSGSGTDYSLTISNLEPEDIATYYCQQYSKLPYTFGSGTKLEIK
# notes: chimeric
# B12: KCD102 (antibody, V domains shown)
# VH: QVQLQQPGAELVRPGTSVKLSCKASGYTFTSYWMHWVKQRPGQGLEWIGVIDPSDSYTNYNQKFKGKATLTVDTSSSTAYMQLSSLTSEDSAVYYCARNGYDGSMDYWGQGTSVTVSS
# VL: B11 VL with D1E, V28D, T51P, P80Q, I83F, Y87F, Y91G, S92N, K93T, S100G
# notes: chimeric
# B13: KCD104 (antibody, V domains shown)
# VH: B12 VH with N59Y, S104A
# VL: B11 VL with D1E, V28D, T51P, P80Q, I83F, Y87F, Y91G, S92N, K93T, S100G
# notes: chimeric
# B14: KCD101 (antibody, V domains shown)
# VH: B12 VH with A97G
# VL: B11 VL with V28D, T51P, P80Q, I83F, Y87F, Y91G, S92N, K93T, S100G
# notes: chimeric
# B15: KCD103 (antibody, V domains shown)
# VH: B12 VH with N59K, G66D, D73E, R98G
# VL: B11 VL with V28D, Y32S, G57R, E79D, P80Q, Y87F, Y91A, S92N, K93T, S100G
# notes: chimeric
# B16: 31S34I54V59D84S/54R101V (SEQ ID NO: 184) (antibody, V domains shown)
# VH: EVQLVESGGGLVQPGGSLRLSCAASGYTFTSYYINWVRQAPGKGLEWIGDINPVTGDTDYNADFKRRFTFSLDTSKSTAYLQMSSLRAEDTAVYYCTREGPSFAYWGQGTLVTVSS
# VL: DIQLTQSPSSLSASVGDRVTITCRSSQTIVHSNGDTYLEWYQQKPGKAPNLLIRKVSNRFSGVPSRFSGSGSGTDFTLTISSLQPEDFATYYCFQGSHVPVTFGQGTKVEIKR
# B17: 34I54V59D84S/54R101V (SEQ ID NO: 184) (antibody, V domains shown)
# VH: B16 VH with S31D
# VL: B16 VL
# How the values were obtained:
# [1] = target: T1, human complement factor D purified from serum (human, UniProt P00746 26-253); assay: SPR MX96
# T1 construct: serum-purified (CompTech); also called hCFD-Comptech; CFD
# T1 sequence (P00746 26-253): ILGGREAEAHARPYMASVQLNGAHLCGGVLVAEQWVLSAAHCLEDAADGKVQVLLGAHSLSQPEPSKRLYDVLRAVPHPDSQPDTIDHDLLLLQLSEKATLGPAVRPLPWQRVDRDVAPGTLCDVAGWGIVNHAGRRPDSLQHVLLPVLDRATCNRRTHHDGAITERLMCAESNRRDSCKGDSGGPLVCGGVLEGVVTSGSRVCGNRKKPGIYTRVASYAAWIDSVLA
# [2] = target: T2, recombinant cynomolgus CFD, His-tagged (cynomolgus); assay: SPR MX96
# T2 construct: also called rcyCFD-His; recombinant Cyno-CFD
# [3] = target: T3, recombinant human CFD, His-tagged (human, UniProt P00746 26-253); assay: SPR MX96
# T3 construct: also called rhCFD-His
# T3 sequence (P00746 26-253 limits assumed): as the sequence (P00746 26-253) above
# [4] = target: T4, recombinant human CFD mutant 1 (R157A, R207A), His-tagged (human, UniProt P00746 26-253); assay: SPR MX96
# T4 construct: positions are linear positions in the mature protein; also called rhCFD-mut1-His; Mut1
# T4 sequence (P00746 26-253 R182A/R232A limits assumed): as the sequence (P00746 26-253) above, with R157A, R207A counted along it
# [5] = target: T1, human complement factor D purified from …
# [6] = target: T4, recombinant human CFD mutant 1 (R157A, …); assay: ELISA
# [7] = target: T1, human complement factor D purified from …; assay: cell-based or functional assay
# [8] = target: T1, human complement factor D purified from …; assay: cell-based or functional assay; remark: listed apart in the source
# [9] = target: T1, human complement factor D purified from …; remark: listed apart in the source
# [10] = target: T4, recombinant human CFD mutant 1 (R157A, …); assay: ELISA; remark: listed apart in the source
# [11] = target: human Complement Factor D (serum purified) (human, UniProt P00746 26-253); assay: cell-based or functional assay
# Chain of human Complement Factor D (serum purified) (P00746 26-253): as the sequence (P00746 26-253) above
# [12] = target: T1, human complement factor D purified from …; assay: cell-based or functional assay; remark: listed apart in the source
# [13] = target: T1, human complement factor D purified from …; remark: listed apart in the source
# [14] = target: T4, recombinant human CFD mutant 1 (R157A, …); assay: ELISA; remark: listed apart in the source
# For CFD Enzymatic activity (% of Neg Ctrl) in this document: test concentration or dose not given here.
binder,measurement,setting,value
B1,Kd,[1],0.13 nM
same,Kd,[2],0.41 nM
same,Kd,[3],0.11 nM
same,Kd,[4],0.08 nM
same,Kd,[5],0.0307 nM
same,Mut1 Binding (% wt),[6],71.2 % wt
same,CFD Enzymatic activity (% of Neg Ctrl),[7],144 % of Neg Ctrl
B2,Kd,[1],4.3 nM
same,Kd,[2],5.2 nM
same,Kd,[3],3.3 nM
same,CFD Enzymatic activity (% of Neg Ctrl),[8],19.7 % of Neg Ctrl
same,Kd,[9],0.78 nM
same,Mut1 Binding (% wt),[10],-0.643 % wt
B3,"% no ab control, CFD enzymatic activity on Z-L-Lys-SBzl",[11],15.3 % no ab control
same,"Vmax (OD/sec), CFD enzymatic activity on Z-L-Lys-SBzl",[11],0.318 OD/sec
B4,Kd,[1],2.5 nM
same,Kd,[2],52 nM
same,Kd,[3],1.9 nM
same,Kd,[4],1.8 nM
same,CFD Enzymatic activity (% of Neg Ctrl),[12],0 % of Neg Ctrl
same,Kd,[13],0.451 nM
same,Mut1 Binding (% wt),[14],56.7 % wt
B5,Kd,[1],1.6 nM
same,Kd,[2],26 nM
same,Kd,[3],1.1 nM
same,Kd,[4],1.3 nM
same,CFD Enzymatic activity (% of Neg Ctrl),[12],12.8 % of Neg Ctrl
same,Kd,[13],0.245 nM
same,Mut1 Binding (% wt),[14],44.3 % wt
B6,Kd,[1],1.4 nM
same,Kd,[2],3 nM
same,Kd,[3],1 nM
same,Kd,[4],0.42 nM
same,CFD Enzymatic activity (% of Neg Ctrl),[12],6.8 % of Neg Ctrl
same,Kd,[13],1.09 nM
same,Mut1 Binding (% wt),[14],65.6 % wt
B7,Kd,[1],4.5 nM
same,Kd,[2],27 nM
same,Kd,[3],3.4 nM
same,Kd,[4],1.4 nM
same,CFD Enzymatic activity (% of Neg Ctrl),[12],11.8 % of Neg Ctrl
same,Kd,[13],0.587 nM
same,Mut1 Binding (% wt),[14],78.3 % wt
B8,Kd,[1],1.9 nM
same,Kd,[2],170 nM
same,Kd,[3],1.4 nM
same,Kd,[4],0.75 nM
same,CFD Enzymatic activity (% of Neg Ctrl),[12],13.7 % of Neg Ctrl
same,Kd,[13],79.1 nM
same,Mut1 Binding (% wt),[14],62.2 % wt
B9,Kd,[1],4.4 nM
same,Kd,[2],160 nM
same,Kd,[3],3.4 nM
same,Kd,[4],2.9 nM
same,CFD Enzymatic activity (% of Neg Ctrl),[12],47.3 % of Neg Ctrl
same,Kd,[13],6.62 nM
same,Mut1 Binding (% wt),[14],58.9 % wt
B10,Kd,[1],2.6 nM
same,Kd,[2],6 nM
same,Kd,[3],1.8 nM
same,Kd,[4],0.96 nM
same,CFD Enzymatic activity (% of Neg Ctrl),[12],8.8 % of Neg Ctrl
same,Kd,[13],1.02 nM
same,Mut1 Binding (% wt),[14],62.5 % wt
B11,Kd,[1],1.2 nM
same,Kd,[2],100 nM
same,Kd,[3],0.54 nM
same,Kd,[4],1.1 nM
same,CFD Enzymatic activity (% of Neg Ctrl),[12],36.3 % of Neg Ctrl
same,Kd,[13],0.0156 nM
same,Mut1 Binding (% wt),[14],121 % wt
B12,Kd,[1],3.6 nM
same,Kd,[2],230 nM
same,Kd,[3],2.5 nM
same,Kd,[4],2.5 nM
same,Kd,[5],6.98 nM
same,Mut1 Binding (% wt),[6],64.3 % wt
same,CFD Enzymatic activity (% of Neg Ctrl),[7],92.3 % of Neg Ctrl
B13,Kd,[1],1.6 nM
same,Kd,[2],72 nM
same,Kd,[3],1.2 nM
same,Kd,[4],0.82 nM
same,Kd,[5],1.32 nM
same,Mut1 Binding (% wt),[6],68.3 % wt
same,CFD Enzymatic activity (% of Neg Ctrl),[7],92.3 % of Neg Ctrl
B14,Kd,[1],3.8 nM
same,Kd,[2],240 nM
same,Kd,[3],2.7 nM
same,Kd,[4],2.8 nM
same,Kd,[5],1.45 nM
same,Mut1 Binding (% wt),[6],65.8 % wt
same,CFD Enzymatic activity (% of Neg Ctrl),[7],93.2 % of Neg Ctrl
B15,Kd,[1],4.4 nM
same,Kd,[2],63 nM
same,Kd,[3],3.1 nM
same,Kd,[4],2.5 nM
same,Kd,[5],1.48 nM
same,Mut1 Binding (% wt),[6],65.2 % wt
same,CFD Enzymatic activity (% of Neg Ctrl),[7],126 % of Neg Ctrl
B16,"% no ab control, CFD enzymatic activity on Z-L-Lys-SBzl",[11],28.6 % no ab control
same,"Vmax (OD/sec), CFD enzymatic activity on Z-L-Lys-SBzl",[11],0.596 OD/sec
B17,"% no ab control, CFD enzymatic activity on Z-L-Lys-SBzl",[11],23.3 % no ab control
same,"Vmax (OD/sec), CFD enzymatic activity on Z-L-Lys-SBzl",[11],0.486 OD/sec
